Measurements taken from US9791436.

Biological target: SH3-peptide-tagged TVMV-inducible HCV-based signal transducers
Assay: cell-based or functional assay

B1: SH3-H6-68-AP (protein)
chain: SGGSGAEYVRALFDFNGNDEEDLPFKKGDILRIRDKPEEQWWNAEDSEGKRGMIPVPYVEKYRPASASVSALIGGRGGSGGSGGSGGSGGSGGSSKALLKGVRDFNPISACVCLLENSSDGHSERLFGIGFGPYIIANQHLFRRNNGELTIKTMHGEFKVKNSTQLQMKPVEGRDIIVIKMAKDFPPFPQKLKFRQPTIKDRVCMVSTNFQQKSVSSLVSESSHIVHKEDTSFWQHWITTKDGQCGSPLVSIIDGNILGIHSLTHTTNGSNYFVEFPEKFVATYLDAADGWCKNWKFNADKISWGSFILWEDAPEDFMSGLVPRGVGREYVRFAPGSTHHHHHH
B1 gave an induction ratio of 20 fold.
